Assay results taken from PMC2363329, “Interaction of the PA2G4 (EBP1) protein with ErbB-3 and regulation of this binding by heregulin” (British Journal of Cancer, 2000).

Molecular target: T1, ErbB-3, endogenous in AU565 cells (human (endogenous in AU565), UniProt P21860 20-1342)
T1 construct: ErbB-3, endogenous in the human AU565 mammary carcinoma cell line; source: endogenous, AU565 lysate
Experiment: co-IP; AU565 cells untreated, HRG (10 ng ml-1, 15 min) or EGF (50 ng ml-1, 15 min); cytoplasmic fractions in IP buffer (50 mM Tris pH 8.0, 120 mM NaCl, 0.5% NP-40); ErbB-3 immunoprecipitation, blot with anti-p38-2G4 and anti-ErbB-3; densitometry
Details: partners not purified

T1 sequence (P21860 20-1342): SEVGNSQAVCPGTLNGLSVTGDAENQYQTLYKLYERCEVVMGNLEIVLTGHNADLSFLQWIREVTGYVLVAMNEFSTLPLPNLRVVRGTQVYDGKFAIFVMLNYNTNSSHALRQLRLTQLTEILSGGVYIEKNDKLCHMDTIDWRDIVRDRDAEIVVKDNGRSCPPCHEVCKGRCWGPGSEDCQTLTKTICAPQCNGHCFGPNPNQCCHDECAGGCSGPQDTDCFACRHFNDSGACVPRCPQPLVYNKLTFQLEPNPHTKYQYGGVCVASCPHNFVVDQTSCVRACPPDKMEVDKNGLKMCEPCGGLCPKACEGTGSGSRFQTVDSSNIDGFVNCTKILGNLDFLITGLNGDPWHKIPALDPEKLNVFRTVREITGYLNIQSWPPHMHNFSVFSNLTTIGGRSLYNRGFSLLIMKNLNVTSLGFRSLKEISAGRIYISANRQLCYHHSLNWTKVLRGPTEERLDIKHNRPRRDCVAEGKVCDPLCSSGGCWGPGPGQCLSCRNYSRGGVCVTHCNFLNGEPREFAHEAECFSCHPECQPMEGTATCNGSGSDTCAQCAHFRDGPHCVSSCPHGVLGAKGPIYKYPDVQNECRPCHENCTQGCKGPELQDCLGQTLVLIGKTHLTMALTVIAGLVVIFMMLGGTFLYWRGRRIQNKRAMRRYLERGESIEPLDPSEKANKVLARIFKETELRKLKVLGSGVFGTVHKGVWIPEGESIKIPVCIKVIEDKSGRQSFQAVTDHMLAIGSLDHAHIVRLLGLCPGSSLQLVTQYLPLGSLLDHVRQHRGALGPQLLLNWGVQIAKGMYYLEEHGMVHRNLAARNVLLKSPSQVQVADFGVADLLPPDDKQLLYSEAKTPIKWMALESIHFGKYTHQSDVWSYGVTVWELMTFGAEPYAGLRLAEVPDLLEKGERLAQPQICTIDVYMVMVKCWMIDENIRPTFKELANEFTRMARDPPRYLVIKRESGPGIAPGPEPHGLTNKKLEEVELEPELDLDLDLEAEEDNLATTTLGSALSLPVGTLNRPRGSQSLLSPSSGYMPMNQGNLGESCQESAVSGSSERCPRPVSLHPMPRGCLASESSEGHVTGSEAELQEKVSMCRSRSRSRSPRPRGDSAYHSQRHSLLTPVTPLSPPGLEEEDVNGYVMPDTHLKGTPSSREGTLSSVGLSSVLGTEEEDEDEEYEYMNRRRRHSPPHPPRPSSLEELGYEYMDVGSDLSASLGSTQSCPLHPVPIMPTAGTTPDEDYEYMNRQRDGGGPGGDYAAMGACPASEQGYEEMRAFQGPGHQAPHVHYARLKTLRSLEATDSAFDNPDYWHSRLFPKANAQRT

B1: Ebp1, endogenous approximately 50 kDa protein in AU565 cells (natural protein, human (endogenous in AU565), UniProt Q9UQ80 1-394, looked up)
chain: MSGEDEQQEQTIAEDLVVTKYKMGGDIANRVLRSLVEASSSGVSVLSLCEKGDAMIMEETGKIFKKEKEMKKGIAFPTSISVNNCVCHFSPLKSDQDYILKEGDLVKIDLGVHVDGFIANVAHTFVVDVAQGTQVTGRKADVIKAAHLCAEAALRLVKPGNQNTQVTEAWNKVAHSFNCTPIEGMLSHQLKQHVIDGEKTIIQNPTDQQKKDHEKAEFEVHEVYAVDVLVSSGEGKAKDAGQRTTIYKRDPSKQYGLKMKTSRAFFSEVERRFDAMPFTLRAFEDEKKARMGVVECAKHELLQPFNVLYEKEGEFVAQFKFTVLLMPNGPMRITSGPFEPDLYKSEMEVQDAELKALLQSSASRKTQKKKKKKASKTAENATSGETLEENEAGD
notes: Ebp1 (PA2G4), endogenous full-length protein of approximately 50 kDa in the human AU565 mammary carcinoma cell line; predicted protein of 394 amino acid residues; also called PA2G4; source: endogenous, AU565 lysate
- ratio of Ebp1 to ErbB-3 in ErbB-3 immunoprecipitates (densitometry), EGF-treated cells: 1.3
- ratio of Ebp1 to ErbB-3 in ErbB-3 immunoprecipitates (densitometry), control cells: 1.6
- ratio of Ebp1 to ErbB-3 in ErbB-3 immunoprecipitates (densitometry), heregulin-treated cells: 0.3
